# Experiments:
# [1] = test system: Saccharomyces cerevisiae; assay: protein stability index of tFT-peptide fusion in wild type (PSI (0-1 scale)); higher = more stable (slower turnover); conditions: genetic background: wild type
# Experimental: (§1)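 MPS profiling in S. cerevisiae of two library types built from selected 12-aa C-degron peptides (IN1, IN2, LN1, LN3, VN2, R1-R5, W1-W3, Atg1 and Rpa12 C-termini): saturation mutagenesis libraries and C-terminal +1 capping libraries (13 aa). Each peptide is fused to the C-terminus of a sfGFP-mCherry timer, after a GGGS linker. Cells are FACS-sorted into 8 mCherry/sfGFP bins and sequenced. PSI runs from 0 (unstable) to 1 (stable), measured once in wild type and in the das1Δ or doa10Δ background.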
# [2] = test system: Saccharomyces cerevisiae; assay: protein stability index of tFT-peptide fusion in deletion strain of DAS1 (PSI (0-1 scale)); higher = more stable (slower turnover)
# Experimental: as §1
# 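For protein stability index of tFT-peptide fusion in deletion strain of DAS1 in this document: PSI is a weighted mean of each variant's read distribution over the sorted stability bins, computed only for variants having over 10 reads in total.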
# 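For protein stability index of tFT-peptide fusion in wild type in this document: PSI derived as read-weighted mean over the 8 sorting bins, only variants exceeding 10 total reads kept, mCherry placed adjacent to the peptide and sfGFP distal.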
Sequence,protein stability index [1],protein stability index [2]
LVVYLSCVALIN,0.0158,0.0501
LVVYLSCVHCIN,0.0533,0.251
LVVYLSCVSCIN,0.0143,0.0441
LVVYNSCVACIN,0.245,0.406
LVVYQSCVACIN,0.216,0.339
LVVYTSCVACIN,0.0172,0.0606
PDKMNHLIKLLN,0.111,0.614
PDKRNHLIKCLN,0.169,0.634
PDKRNHLIKLEN,0.611,0.603
PDKRNHLIKLLG,0.238,0.614
PDKRNHLIKLLK,0.758,0.611
PDKRNHLIKLLND,0.638,0.664
PDKRNHLIKLLNP,0.663,0.672
PDKRNHLIKVLN,0.186,0.577
PDKRNHLIRLLN,0.144,0.614
PDKRNHLLKLLN,0.157,0.6
PDKRRHLIKLLN,0.115,0.605
PDLAASFWRVVG,0.151,0.708
PDNRNHLIKLLN,0.171,0.604
PDTRNHLIKLLN,0.183,0.59
PGKRNHLIKLLN,0.127,0.585
PHLAASFWRVVG,0.148,0.698
PLIQPLPVQFLN,0.0682,0.604

Sequence,protein stability index [1],protein stability index [2]
PSDAASFWRVVG,0.187,0.702
PSLAAKFWRVVG,0.149,0.681
PSLAASDWRVVG,0.627,0.68
PSLAASFWCVVG,0.47,0.687
PSLAASFWDVVG,0.694,0.708
PSLAASFWRHVG,0.181,0.704
PSLAASFWRKVG,0.131,0.688
PSLAASFWRVVGI,0.667,0.696
PSLAASFWRVVGS,0.234,0.697
PSLAASPWRVVG,0.519,0.683
PSLADSFWRVVG,0.586,0.688
PSLAMSFWRVVG,0.146,0.673
PSLHASFWRVVG,0.157,0.684
PSLVASFWRVVG,0.137,0.686
PSSAASFWRVVG,0.143,0.696
QSMRWTFRYWVN,0.047,0.691
RHIQPLPVQFLN,0.167,0.588
RKIQPLPVQFLN,0.0533,0.616
RLIIPLPVQFLN,0.018,0.551
RLIQALPVQFLN,0.0525,0.683
RLIQPAPVQFLN,0.0579,0.612
RLIQPLDVQFLN,0.225,0.617
RLIQPLEVQFLN,0.163,0.665

Sequence,protein stability index [1],protein stability index [2]
RLIQPLPQQFLN,0.0631,0.642
RLIQPLPRQFLN,0.19,0.596
RLIQPLPSQFLN,0.106,0.613
RLIQPLPVQCLN,0.173,0.478
RLIQPLPVQFAN,0.353,0.62
RLIQPLPVQFGN,0.63,0.611
RLIQPLPVQFLNE,0.659,0.676
RLIQPLPVQFLNQ,0.65,0.673
RLIQPLPVQFLW,0.621,0.565
RLIQPLPVQLLN,0.0606,0.577
RLIQPLVVQFLN,0.045,0.587
RLIVPLPVQFLN,0.0525,0.607
RLPQPLPVQFLN,0.118,0.631
RSMRWTFRYWVN,0.0703,0.659
SVVYLSCVACIN,0.0146,0.0314
TKHKKGQKQKIN,0.118,0.639
TLIQPLPVQFLN,0.102,0.576
VEGAVGGWRLVG,0.159,0.685
VFGAVGGWRLVG,0.134,0.698
VHGAVGGWRLVG,0.136,0.692
VMGAVGGWRLVG,0.118,0.681
VRGAAGGWRLVG,0.164,0.689
VRGADGGWRLVG,0.438,0.685

Sequence,protein stability index [1],protein stability index [2]
VRGAPGGWRLVG,0.165,0.684
VRGAVGGCRLVG,0.633,0.692
VRGAVGGERLVG,0.65,0.698
VRGAVGGGRLVG,0.564,0.682
VRGAVGGWFLVG,0.626,0.673
VRGAVGGWNLVG,0.198,0.679
VRGAVGGWRGVG,0.602,0.673
VRGAVGGWRLLG,0.164,0.658
VRGAVGGWRLNG,0.234,0.679
VRGAVGGWRLQG,0.153,0.649
VRGAVGGWRLRG,0.636,0.679
VRGAVGGWRLVE,0.726,0.663
VRGAVGGWRLVGH,0.668,0.671
VRGAVGGWRLVGL,0.665,0.675
VRGAVGGWRLVI,0.215,0.685
VRGAVGGWRLVM,0.321,0.661
VRGAVGGWRLVP,0.436,0.686
VRGAVGGWRLVT,0.184,0.675
VRGAVGGWRLVY,0.654,0.636
VRGAVGGWRVVG,0.259,0.654

# Reference: the supplement of paper PMC10724198
